The source of these data is patent US9573987B2 (priority 2011, dated 2017).

Where two headings read alike, the source gives them in different places. Where a SMILES comes first, the peptide text is derived from it. Side-chain parts run from the residue outwards. [ ]: non-standard residue; d: D form. Phe(4-NH2) = Nc1ccc(C[C@H](N)C(=O)O)cc1; Aib = CC(C)(N)C(=O)O; Sar = CNCC(=O)O

For one data set, the system named is insulin receptor. The note with it: background statement; cited from earlier work.
In data set [1] the target is T1, IGF-1 receptor (Homo sapiens, UniProt P08069). The data set can be described thus: IGF-1 receptor phosphorylation assay, receptor transfected HEK293 cells. Format: cell-based. Also noted: expressed in transfected cells; host or cells: HEK293. As to conditions: Table 15; read-out: Receptor Phosphorylation IGF-IR EC50. The procedure:
Color development was stopped 5 min later by adding 0.05 ml 1 N HCl. Absorbance at 450 nm was measured on Titertek Multiscan MCC340 (ThermoFisher, Pittsburgh, Pa.).

Data set [2] addresses T2, insulin subtype B receptor (IR-B) (Homo sapiens, UniProt P06213). The data set can be described thus: Insulin subtype B receptor binding (competition binding). As to conditions: Table 15. Also noted: expressed in transfected cells; plasma membrane fragments.
Data set [3] has as its target T2, insulin subtype B receptor (IR-B). The data set can be described thus: Insulin subtype B receptor phosphorylation, receptor transfected HEK293 cells. Format: cell-based. Also noted: expressed in transfected cells; host or cells: HEK293. The procedure:
(§1) Color development was stopped 5 min later by adding 0.05 ml 1 N HCl. Absorbance at 450 nm was measured on Titertek Multiscan MCC340 (ThermoFisher, Pittsburgh, Pa.). […]

For data set [4], the target named is T3, insulin subtype A receptor (IR-A) (Homo sapiens, UniProt P06213).
T3 construct: expressed in transfected cells; host or cells: HEK293
The data set can be described thus: Insulin subtype A receptor phosphorylation, receptor transfected HEK293 cells. It counts as cell-based. The procedure:
as §1

In data set [5] the test system is human mammary epithelial cells (HMEC). The data set can be described thus: Human mammary epithelial cells proliferation ([14C]-thymidine). It counts as cell-based. The note with it: Table 15; read-out: Proliferation HMEC EC50. The procedure: The plate was incubated 4 h at 37° C., 5% CO2 and 90% humidity.
Data set [6] deals with T1, IGF-1 receptor. The data set can be described thus: IGF-1 receptor binding assay (competition, scintillation proximity). Also noted: expressed in transfected cells; plasma membrane fragments. The note with it: Table 15; read-out: Receptor Binding IGR-1R EC50. (Scintillation proximity formats need no separation of bound from free tracer.)
The subject of a further data set is blood glucose. The data set can be described thus: Comparative insulin tolerance test / insulin dose titration in mice.
Setting [7] is: Table 15, read-out: Receptor Phosphorylation IR-B EC50.
[8] abbreviates: read-out: EC50 values (in nM), phosphorylation at the insulin subtype B receptor, experiment of FIG. 18B.
[9] abbreviates: Table 15, read-out: Receptor Phosphorylation IR-A- EC50.
[10] abbreviates: read-out: EC50 values (in nM), phosphorylation at the insulin subtype A receptor, experiment of FIG. 18A.

Consider `CC[C@H](C)[C@H](NC(=O)CN)C(=O)N[C@H](C(=O)N[C@@H](CC(=O)O)C(=O)N[C@@H](CCC(=O)O)C(=O)N[C@@H](C)C(=O)N[C@@H](C)C(=O)N[C@@H](Cc1ccccc1)C(=O)N[C@@H](CCCNC(=N)N)C(=O)N[C@@H](CO)C(=O)N[C@@H](C)C(=O)N[C@@H](CC(=O)O)C(=O)N[C@@H](CC(C)C)C(=O)N[C@@H](CCCNC(=N)N)C(=O)N[C@@H](CCCNC(=N)N)C(=O)N[C@@H](CC(C)C)C(=O)N[C@@H](CCC(=O)O)C(=O)N[C@@H](CCSC)C(=O)N[C@@H](Cc1ccc(NC(=O)[C@H]2CCCN2C(=O)C(C)(C)N)cc1)C(=O)N[C@@H](C)C(=O)N[C@@H](C)C(N)=O)C(C)C` [AiB dPro] (H-GIVDEAAFRSADLRRLEM[Phe(4-NH2)]([dP-Aib])AA-NH2), for which the “Half Life (hr) 20% Plasma/PBS” value came out at 2.2 h.

Regarding `CC[C@H](C)[C@H](NC(=O)CN)C(=O)N[C@H](C(=O)N[C@@H](CC(=O)O)C(=O)N[C@@H](CCC(=O)O)C(=O)N[C@@H](C)C(=O)N[C@@H](C)C(=O)N[C@@H](Cc1ccccc1)C(=O)N[C@@H](CCCNC(=N)N)C(=O)N[C@@H](CO)C(=O)N[C@@H](C)C(=O)N[C@@H](CC(=O)O)C(=O)N[C@@H](CC(C)C)C(=O)N[C@@H](CCCNC(=N)N)C(=O)N[C@@H](CCCNC(=N)N)C(=O)N[C@@H](CC(C)C)C(=O)N[C@@H](CCC(=O)O)C(=O)N[C@@H](CCSC)C(=O)N[C@@H](Cc1ccc(NC(=O)CN(C)C(=O)[C@@H](N)CCCCN)cc1)C(=O)N[C@@H](C)C(=O)N[C@@H](C)C(N)=O)C(C)C` [K Sar] (H-GIVDEAAFRSADLRRLEM[Phe(4-NH2)]([Sar-Lys])AA-NH2), the “Half Life (hr) 20% Plasma/PBS” value amounted to 5.9 h.

Consider “proinsulin: larger linear precursor of insulin with 35-residue connecting peptide”, for which, in the data set with insulin receptor, the “potency relative to native insulin” value is given as 2% to 9%.

B1: DP22LysC: DP22 cleaved at the lysine of CTP to produce a two chain insulin (protein)
chain 1: APPPSLPSPSRLPGPSDTPILPQEEEEERGPEHLCGAHLVDALYLVCGDRGFYSSSSRAPPPSLPSPSRLPGPSDTPILPQK
chain 2: GIVDECCHRSCDLRRLENYCN
B1: the EC50 with IGF-1 receptor [1] worked out at 23 nM; in [2] it was 3.71 nM; in [3] (setting [7]), 1.41 nM; in data set [3] (setting [8]) it was 1.88 ± 0.52 nM; in [4] (setting [9]), 0.385 nM; in [4] (setting [10]) it was 0.39 ± 0.06 nM. Besides, the values for the EC50 (in [5]; with IGF-1 receptor [6]) were 29.7 nM and 58.8 nM, respectively.

B2: GEEEEEKGPEHLCGAHLVDALYLVCGDRGFYSSSSRAPPPSLPSPSRLPGPSD TPILPQKGIVDECCHRSCDLRRLENYCN (protein, listed as Homo sapiens)
chain: GEEEEEKGPEHLCGAHLVDALYLVCGDRGFYSSSSRAPPPSLPSPSRLPGPSDTPILPQKGIVDECCHRSCDLRRLENYCN
The IC50 is the concentration at which inhibition is half-maximal. Consider B2, for which the EC50 turned out to be 379 nM with IGF-1 receptor [1]; 5.44 nM in data set [2]; 4.83 nM in [3] (setting [7]); 10.6 ± 5.06 nM in [3] (setting [8]); 0.8 ± 0.2 nM in data set [4] (setting [10]); 146 nM in [5]. In addition, the EC50 with IGF-1 receptor [6] amounted to 36.9 nM. The IC50 in data set [3] (read-out: Phosphorylation at Insulin Receptor Subtype B (IC50), Table 16B) amounted to 1.05 nM; in data set [4] (read-out: Phosphorylation at Insulin Receptor Subtype A (IC50), Table 16A), 3.12 nM. Also, the “in vitro phosphorylation activity at the insulin subtype A receptor (result in words)” value in data set [4] (FIGS. 21, 23) is recorded as “nearly equivalent to native hormone”. Further, in the data set on blood glucose, the “blood glucose lowering in insulin tolerance test (result in words)” value is listed as “potent insulin receptor agonists”.

B3: DP22: CTP-E5R-B chain-CTP(K)-A Chain (SEQ ID NO: 91) (protein)
chain: MGSSSSKAPPPSLPSPSRLPGPSDTPILPQEEEEERGPEHLCGAHLVDALYLVCGDRGFYSSSSRAPPPSLPSPSRLPGPSDTPILPQKGIVDECCHRSCDLRRLENYCN
modifications: single chain insulin analog
For B3, the EC50 stood at 269 nM with IGF-1 receptor [1]; 16.4 nM in data set [2]; 11.3 nM in data set [3] (setting [7]); 18.3 ± 10.3 nM in data set [3] (setting [8]); 1.25 nM in data set [4] (setting [9]); 0.97 ± 0.17 nM in data set [4] (setting [10]). Besides, the EC50 in [5] is 431 nM; with IGF-1 receptor [6] it was 438 nM.
